± gives the standard deviation of the averaged measurements.
B1: library; a variant is named by its letters at N, in order (parent)
chain: GCUGUCACCGAGAAACUGUGAAGUAUAUCUUAAACCUGGGCACUUAAAAGAUAUAUGGAGUUAGUAGUGCAACCUGCUCGGUCUGAUGAGUCCNNNNNNGGACGAAACAGC

Experiments:
[1] = variants of: B1; experiment: FACS-Seq fitted mean relative fluorescence mCherry/BFP without ligand (log10 relative fluorescence); HEK293T; ligand: cyclic di-GMP (c-di-GMP-II aptamer); higher = higher reporter protein expression; conditions: ligand present: no
Method in brief: (§1)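 Fluorescence figures are normalized fitted normal means of sequenced bin counts. Enriched, lentivirally transduced HEK293T libraries with a ribozyme-switch mCherry reporter and EF1α-BFP were held 48 h with or without ligand, then sorted into 6 mCherry/BFP bins. PCR-amplified, barcoded genomic DNA from each bin was sequenced on MiSeq. Means of log10(mCherry/BFP) were scaled to five spiked-in control ribozymes.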

[2] = variants of: B1; experiment: normalized RNA/DNA level without ligand (relative to sTRSVctl = 100) (log10 (% of sTRSVctl)); HEK293T; ligand: cyclic di-GMP (c-di-GMP-II aptamer); higher = less ribozyme self-cleavage, higher mRNA level; conditions: reporter: mCherry (pCS4076), ligand present: no
Method in brief: (§2)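 For each 6-well well, 4 µg of library plasmid encoding mCherry-linked ribozyme switches, or eGFP-linked ones in some ligand experiments, was transfected into HEK293T. Any ligand was added 1 h before transfection, and RNA was extracted with EDTA 72 h after it, then reverse-transcribed, amplified, barcoded and sequenced. RNA level was obtained by dividing RNA reads by DNA reads, normalizing to a spiked-in non-cleaving sequence or to the top sequences, then scaling and log-transforming. The top set was 25 sequences, scaling was ×100 with log10, and ≥100 DNA reads were required.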

[3] = variants of: B1; experiment: FACS-Seq fitted mean relative fluorescence mCherry/BFP with ligand (log10 relative fluorescence); HEK293T; ligand: cyclic di-GMP (c-di-GMP-II aptamer); ligand concentration (+) FACS-Seq: 1 mM; higher = higher reporter protein expression; conditions: ligand present: yes
Method in brief: as §1

[4] = variants of: B1; experiment: normalized RNA/DNA level with ligand (relative to sTRSVctl = 100) (log10 (% of sTRSVctl)); HEK293T; ligand: cyclic di-GMP (c-di-GMP-II aptamer); ligand concentration (+) RNA-Seq: 1 mM; higher = less ribozyme self-cleavage, higher mRNA level; conditions: reporter: mCherry (pCS4076), ligand present: yes
Method in brief: as §2

Variant | FACS-Seq fitted mean (log10) [1] | normalized RNA/DNA level without ligand (log10) [2] | FACS-Seq fitted mean (log10) [3] | normalized RNA/DNA level with ligand (log10) [4]
CUUGAA | -0.585 ± 0.066 | 1.35 ± 0.11 | -0.291 ± 0.046 | 1.55 ± 0.086
ACAGAG | -0.3716 ± 0.0034 | 1.44 ± 0.14 | -0.0973 ± 0.031 | 1.59 ± 0.052
CGAAAC | -0.432 ± 0.051 | 1.62 ± 0.048 | -0.267 ± 0.02 | 1.77 ± 0.097
UGCAUC | -1.13 ± 0.034 | 1.78 ± 0.026 | -0.952 ± 0.082 | 1.87 ± 0.099
GUCGCG | -0.376 ± 0.016 | 1.76 ± 0.018 | -0.0454 ± 0.13 | 1.82 ± 0.071
CGUUAA | -0.684 ± 0.057 | 1.22 ± 0.036 | -0.425 ± 0.019 | 1.4 ± 0.14
CCGUAU | -0.719 ± 0.038 | 1.5 ± 0.015 | -0.441 ± 0.007 | 1.69 ± 0.16
AGGACA | -0.264 ± 0.0046 | 1.48 ± 0.11 | -0.014 ± 0.086 | 1.63 ± 0.12
UUGUAU | 0.0117 ± 0.057 | 1.66 ± 0.051 | 0.163 ± 0.013 | 1.82 ± 0.16
CCACCU | -0.368 ± 0.015 | 1.66 ± 0.02 | -0.107 ± 0.015 | 1.8 ± 0.096
GAGAAG | -0.283 ± 0.064 | 1.71 ± 0.038 | -0.00672 ± 0.064 | 1.79 ± 0.12
UAAUGC | -0.174 ± 0.058 | 1.69 ± 0.032 | -0.398 ± 0.12 | 1.84 ± 0.073
UAAUGA | -0.416 ± 0.019 | 1.597 ± 0.0061 | -0.112 ± 0.13 | 1.77 ± 0.086
GAUGGA | -0.376 ± 0.014 | 1.42 ± 0.14 | -0.11 ± 0.031 | 1.61 ± 0.097
CCAGGC | -1.034 ± 0.0013 | 1.636 ± 0.0075 | -0.924 ± 0.11 | 1.76 ± 0.15
CCUUCA | -0.388 ± 0.025 | 1.6013 ± 0.00017 | -0.00437 ± 0.075 | 1.72 ± 0.15
CCCAAA | -0.275 ± 0.06 | 1.48 ± 0.062 | 0.0473 ± 0.081 | 1.69 ± 0.1
AAGGUG | -0.189 ± 0.0061 | 1.51 ± 0.072 | 0.04 ± 0.083 | 1.69 ± 0.11

From the supplement of paper PMC6757056
